In assay [1] the target is T1, TROP2 on TROP2-positive NCI-H1975 cells (human, UniProt P09758 27-323).
T1 sequence: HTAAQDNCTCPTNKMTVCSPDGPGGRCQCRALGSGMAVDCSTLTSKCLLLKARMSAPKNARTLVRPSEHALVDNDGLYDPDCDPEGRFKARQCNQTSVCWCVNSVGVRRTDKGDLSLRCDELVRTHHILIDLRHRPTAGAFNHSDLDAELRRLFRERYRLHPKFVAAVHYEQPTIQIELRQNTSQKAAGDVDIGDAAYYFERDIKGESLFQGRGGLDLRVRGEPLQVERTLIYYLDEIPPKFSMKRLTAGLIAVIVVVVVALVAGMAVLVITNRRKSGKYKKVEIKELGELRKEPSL
Kind of assay: cell-based or functional assay.

In assay [2] the target is T2, Human TROP2 Protein, His Tag (Acro Biosystems) (human, UniProt P09758 27-274).
T2 construct: Soluble analyte of the Octet assay; also called TACSTD2; not shown: His tag
T2 sequence (looked up): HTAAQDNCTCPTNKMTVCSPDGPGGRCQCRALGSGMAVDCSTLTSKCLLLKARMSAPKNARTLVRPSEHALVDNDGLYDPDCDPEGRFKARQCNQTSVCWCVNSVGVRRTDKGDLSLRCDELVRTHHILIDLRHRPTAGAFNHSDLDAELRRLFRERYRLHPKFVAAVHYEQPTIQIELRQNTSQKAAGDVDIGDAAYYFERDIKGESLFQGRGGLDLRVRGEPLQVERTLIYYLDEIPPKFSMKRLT
As to the kind of experiment: BLI (Octet), IgG on anti-human Fc sensor, soluble TROP2; grade 2 = No change vs parent. Here is the method:
(§1) After allowing for four days of protein expression, cell culture supernatants were collected, quantified by SDS-PAGE analysis (DNS), and the pH dependence of the variant was evaluated using biolayer interferometry (BLI) on an Octet RED 96e instrument. Briefly, cell culture supernatants were diluted based on qualitative expression level of the variant determined by visual examination of SDS-PAGE gels, 5 μL of cell culture supernatant was diluted into 195 μL of 1×PBST, pH 7.4 for high expressors, 25 μL of cell culture supernatant was diluted into 175 μL of 1×PBST, pH 7.4 for medium expressors and 100 μL of cell culture supernatant was diluted into 100 μL of 1×PBST, pH 7.4 for low expressors for loading onto the sensor tips. The resulting diluted supernatants were then captured on an anti-human Fc sensor (Forte Bio). A baseline was established using 1×PBST (50 mM Potassium Phosphate Buffer+150 mM NaCl+0.05% Tween 20) pH 7.4, and the sensor was associated with 50 nM of TROP2 (Human TROP2 Protein, His Tag, Acro Biosystems) in 1×PBST pH 7.4 for 120 sec to generate an association curve. In the dissociation phase, the antibody-antigen complex on the sensor was exposed to 1×PBST pH 7.4 or pH 5.4, for 300 sec. Association and dissociation phase curves were examined for the starting ABPC antibody (with no substitutions) and each corresponding antibody variant at pH 5.4 and pH 7.4 to inform on two criteria: a) enhanced dissociation (i.e., higher koff values) at pH 5.4 due to histidine or alanine substitution compared to the starting ABPC, (with no substitutions), and b) reduced dissociation at pH 7.4 (i.e., lower koff values) compared to pH 5.4 in the antibody variant itself and with the starting ABPC (with no substitutions). […] It was also noted that while some mutations obliterated TROP2 binding, others were tolerated with little or n change in TROP2 binding kinetics.

In assay [3] the target is T3, Human TROP2 Protein, His Tag (Acro Biosystems) (human, UniProt P09758 27-274).
T3 construct: not shown: His tag
T3 sequence (looked up): T2 sequence (looked up)
As to the kind of experiment: BLI (Octet).

Assay [4] addresses T4, Human TROP2 Protein, His Tag (Acro Biosystems) (human, UniProt P09758 27-274).
T4 construct: also called TACSTD2; not shown: His tag
T4 sequence (looked up): T2 sequence (looked up)
Kind of assay: BLI (Octet) [2/2].

For assay [5], the target named is T5, Human TROP2 Protein, His Tag (Acro Biosystems) (human, UniProt P09758 27-274).
T5 construct: not shown: His tag
T5 sequence (looked up): T2 sequence (looked up)
Kind of assay: BLI (Octet). The source holds these as a separate data set.

The target in assay [6] is T5, Human TROP2 Protein, His Tag (Acro …). Kind of assay: Octet BLI: IgG supernatant on anti-human Fc sensor, 50 nM TROP2-His at pH 7.4; Octet Binding Result 3=No binding. The procedure:
as §1

Changes are numbered by the printed parent chain.

The record followed here is patent US20260274985A1 (MYTHIC THERAPEUTICS, published 2026).

B1: 166-DXd (antibody, IgG1, V domains shown)
VH: QVQLQQSGSELKKPGASVKVSCKASGYTFTNYGMNWVKQAPGQGLKWMGWINTYTGEPTYTHDFKGRFAFSLDTSVSTAYLQISSLKADDTAVYFCARGGFGSSYWYFDVWGQGSLVTVSS
VL: DIQLTQSPSSLSASVGDRVSITCKASQDVHIAVAWYQQKPGKAPKLLIYSHSYRYTGVPDRFSGSGSGTDFTLTISSLQPEDFAVYYCQQHYHTPLTFGAGTKVEIK
modifications: maleimide based GGFG-DXd conjugated to hinge cysteines, average DAR of about 4
Turning to B1, the “% efficiency @ 100 nM ADC (cytotoxicity in NCI-H1975 cells)” value (“% efficiency @ 100 nM ADC” below) in assay [1] was found to be 9.57%.

B2: 165-DXd (antibody, IgG1, V domains shown)
VH: B1 VH with H62D
VL: B1 VL with H30S, H51A, H93I
modifications: maleimide based GGFG-DXd conjugated to hinge cysteines, average DAR of about 4
As to B2, the “% efficiency @ 100 nM ADC” value in assay [1] turned out to be 1.47%.

B3: 168-DXd (antibody, IgG1, V domains shown)
VH: B1 VH with H62D, F64H
VL: B1 VL
modifications: maleimide based GGFG-DXd conjugated to hinge cysteines, average DAR of about 4
B3: in assay [1], the “% efficiency @ 100 nM ADC” value is 7.32%.

B4: MYT13203 (antibody, V domains shown)
VH: B1 VH
VL: B1 VL with H30S, H51A, Q89H, H93I
notes: Sacituzumab HC-LC pairing variant; IgG
B4: the binding result in assay [2] was “binds”.

B5: MYT12398 (antibody, V domains shown)
VH: QVQLVQSGAEVKKPGASVKVSCKASGYTFTTAGMQWVRQAPGQGLEWMGWINTHSGVPKYAEDFKGRVTISADTSTSTAYLQLSSLKSEDTAVYYCARSGFGSSYWYFDVWGQGTLVTVSS
VL: B1 VL with L4M, S20T, D28H, H30S, I31T, S52H, D60S, H93I, A100Q, V104L
notes: datopotamab VL 28, 51, 52 substituted
With B5, the binding result in assay [3] is on record as “binds”.

B6: MYT13187 (antibody, V domains shown)
VH: B1 VH
VL: B1 VL with H30S, H51A, S52H, H93I
notes: as for B4
On to B6, for which the binding result in assay [2] is listed as “binds”.

B7: MYT13199 (antibody, V domains shown)
VH: B1 VH with H62D, G66H
VL: B1 VL with H30S, H51A, Y53H, H93I
notes: as for B4
B7: the binding result in assay [2] is recorded as “binds”.

B8: MYT12393 (antibody, V domains shown)
VH: B5 VH
VL: B1 VL with L4M, S20T, H30S, I31T, D60S, Q89H, H93I, A100Q, V104L
notes: datopotamab VL 51, 89 substituted
Take B8: in assay [3], the binding result is listed as “binds”.

B9: MYT13198 (antibody, V domains shown)
VH: B1 VH with H62D, K65H
VL: B1 VL with H30S, H51A, Y53H, H93I
notes: as for B4
Consider B9, for which the binding result in assay [2] is “binds”.

B10: MYT13252 (antibody, V domains shown)
VH: B1 VH with H62D, D63H
VL: B1 VL with H30S, H51A, S52H
notes: Sacituzumab HC-LC pairing variant
For the molecule B10, in assay [4], the binding result is reported as “binds”.

B11: MYT13253 (antibody, V domains shown)
VH: B1 VH with H62D, F64H
VL: B1 VL with H30S, H51A, S52H
notes: as for B10
Consider B11, for which, in assay [4], the binding result is “binds”.

B12: MYT13255 (antibody, V domains shown)
VH: B1 VH with H62D, G66H
VL: B1 VL with H30S, H51A, S52H
notes: as for B10
Turning to B12, the binding result in assay [4] is listed as “binds”.

B13: MYT12404 (antibody, V domains shown)
VH: B5 VH
VL: B1 VL with L4M, S20T, H30S, I31T, S52H, D60S, Q89H, H93I, A100Q, V104L
notes: datopotamab VL 51, 52, 89 substituted
On to B13, for which the binding result in assay [3] is “binds”.

B14: MYT13254 (antibody, V domains shown)
VH: B1 VH with H62D, K65H
VL: B1 VL with H30S, H51A, S52H
notes: as for B10
Turning to B14, the binding result in assay [4] is listed as “binds”.

B15: MYT12392 (antibody, V domains shown)
VH: B5 VH
VL: B1 VL with L4M, S20T, H30S, I31T, S52H, D60S, H93I, A100Q, V104L
notes: datopotamab VL 51, 52 substituted
Regarding B15, in assay [3], the binding result is on record as “binds”.

B16: 167-DXd (antibody, IgG1, V domains shown)
VH: B1 VH with H62D, D63H
VL: B1 VL with V33H, H51A, H93I
modifications: maleimide based GGFG-DXd conjugated to hinge cysteines, average DAR of about 4
B16: the “% efficiency @ 100 nM ADC” value in assay [1] came out at 4.86%.

B17: MYT13295 (antibody, V domains shown)
VH: QVQLQESGPGLVKPSETLSLTCTVSGGSISSYGVHWIRQPPGKGLEWIGVIWTSGVTDYNSALMGRVTISVDTSKNQFSLKLSSVTAADTAVYYCARDGDYDRYTHDYWGQGTLVTVSS
VL: DIVMTQSPDSLAVSLGERATINCRASKSVSTSGYSYMHWYQQKPGQPPKLLIYLASNLESGVPDRFSGSGSGTDFTLTISSLQAEDVAVYYCQASRELPYTFGQGTKLEIK
notes: Full-length IgG from Expi293 supernatant; also called hu7E6SVG heavy chain and light chain pairing variant
In the case of B17, in assay [5], the binding result is “no binding (tested: 50 nM)”.

B18: MYT13443 (antibody, V domains shown)
VH: B17 VH with I51H, H106M
VL: B17 VL with E59H, A94H, T101H
notes: as for B17
On to B18, for which, in assay [6], the binding result is on record as “no binding (tested: 50 nM)”.

B19: MYT13312 (antibody, V domains shown)
VH: B17 VH with V56H, H106M
VL: B17 VL with E59H, A94H, T101H
notes: as for B17
As to B19, in assay [6], the binding result is “no binding (tested: 50 nM)”.

B20: MYT13307 (antibody, V domains shown)
VH: B17 VH with V56H, H106M
VL: B17 VL with E59H
notes: as for B17
With B20, the binding result in assay [6] is recorded as “no binding (tested: 50 nM)”.

B21: MYT13315 (antibody, V domains shown)
VH: B17 VH
VL: B17 VL with E59H, A94H, T101H
notes: as for B17
As to B21, the binding result in assay [5] is “no binding (tested: 50 nM)”.

B22: MYT13310 (antibody, V domains shown)
VH: B17 VH
VL: B17 VL with E59H
notes: as for B17
Consider B22, for which, in assay [5], the binding result is listed as “no binding (tested: 50 nM)”.

B23: MYT13311 (antibody, V domains shown)
VH: B17 VH with I51H, H106M
VL: B17 VL with E59H, A94H, T101H
notes: as for B17
For the molecule B23, in assay [6], the binding result was “no binding (tested: 50 nM)”.

B24: MYT13305 (antibody, V domains shown)
VH: B17 VH
VL: B17 VL with A94H, T101H
notes: as for B17
Take B24: the binding result in assay [5] is reported as “no binding (tested: 50 nM)”.
